The source of these data is ChEMBL document CHEMBL2074293, “Function and expression of multidrug resistance-associated protein family in human colon adenocarcinoma cells (Caco-2)” (J Pharmacol Exp Ther, 2000).

Substrate in data set [1]: C[C@]12CC[C@@H]3c4ccc(O)cc4CC[C@H]3[C@@H]1CC[C@@H]2O[C@@H]1O[C@H](C(=O)O)[C@@H](O)[C@H](O)[C@H]1O
The data set is described as follows: (§1) TP_TRANSPORTER: uptake in brush-border membrane vesicle from Caco-2 cells. It counts as functional, cell membranes.

Substrate in data set [2]: N[C@@H](CCC(=O)N[C@H](CSc1ccc([N+](=O)[O-])cc1[N+](=O)[O-])C(=O)NCC(=O)O)C(=O)O
The data set is described as §1. It counts as functional, cell membranes.

The Km is the concentration of substrate that gives half-maximal velocity.

B1: ATP-binding cassette sub-family C member 2 (Homo sapiens) (protein)
chain: MLEKFCNSTFWNSSFLDSPEADLPLCFEQTVLVWIPLGYLWLLAPWQLLHVYKSRTKRSSTTKLYLAKQVFVGFLLILAAIELALVLTEDSGQATVPAVRYTNPSLYLGTWLLVLLIQYSRQWCVQKNSWFLSLFWILSILCGTFQFQTLIRTLLQGDNSNLAYSCLFFISYGFQILILIFSAFSENNESSNNPSSIASFLSSITYSWYDSIILKGYKRPLTLEDVWEVDEEMKTKTLVSKFETHMKRELQKARRALQRRQEKSSQQNSGARLPGLNKNQSQSQDALVLEDVEKKKKKSGTKKDVPKSWLMKALFKTFYMVLLKSFLLKLVNDIFTFVSPQLLKLLISFASDRDTYLWIGYLCAILLFTAALIQSFCLQCYFQLCFKLGVKVRTAIMASVYKKALTLSNLARKEYTVGETVNLMSVDAQKLMDVTNFMHMLWSSVLQIVLSIFFLWRELGPSVLAGVGVMVLVIPINAILSTKSKTIQVKNMKNKDKRLKIMNEILSGIKILKYFAWEPSFRDQVQNLRKKELKNLLAFSQLQCVVIFVFQLTPVLVSVVTFSVYVLVDSNNILDAQKAFTSITLFNILRFPLSMLPMMISSMLQASVSTERLEKYLGGDDLDTSAIRHDCNFDKAMQFSEASFTWEHDSEATVRDVNLDIMAGQLVAVIGPVGSGKSSLISAMLGEMENVHGHITIKGTTAYVPQQSWIQNGTIKDNILFGTEFNEKRYQQVLEACALLPDLEMLPGGDLAEIGEKGINLSGGQKQRISLARATYQNLDIYLLDDPLSAVDAHVGKHIFNKVLGPNGLLKGKTRLLVTHSMHFLPQVDEIVVLGNGTIVEKGSYSALLAKKGEFAKNLKTFLRHTGPEEEATVHDGSEEEDDDYGLISSVEEIPEDAASITMRRENSFRRTLSRSSRSNGRHLKSLRNSLKTRNVNSLKEDEELVKGQKLIKKEFIETGKVKFSIYLEYLQAIGLFSIFFIILAFVMNSVAFIGSNLWLSAWTSDSKIFNSTDYPASQRDMRVGVYGALGLAQGIFVFIAHFWSAFGFVHASNILHKQLLNNILRAPMRFFDTTPTGRIVNRFAGDISTVDDTLPQSLRSWITCFLGIISTLVMICMATPVFTIIVIPLGIIYVSVQMFYVSTSRQLRRLDSVTRSPIYSHFSETVSGLPVIRAFEHQQRFLKHNEVRIDTNQKCVFSWITSNRWLAIRLELVGNLTVFFSALMMVIYRDTLSGDTVGFVLSNALNITQTLNWLVRMTSEIETNIVAVERITEYTKVENEAPWVTDKRPPPDWPSKGKIQFNNYQVRYRPELDLVLRGITCDIGSMEKIGVVGRTGAGKSSLTNCLFRILEAAGGQIIIDGVDIASIGLHDLREKLTIIPQDPILFSGSLRMNLDPFNNYSDEEIWKALELAHLKSFVASLQLGLSHEVTEAGGNLSIGQRQLLCLGRALLRKSKILVLDEATAAVDLETDNLIQTTIQNEFAHCTVITIAHRLHTIMDSDKVMVLDNGKIIECGSPEELLQIPGPFYFMAKEAGIENVNSTKF
For B1, the Km was determined as 9.4 µM in data set [1] and 16.9 µM in data set [2].
